From patent publication US20180141972

Tests used:
[1] = target: ePDZ-b-WELQ-OFP fusion substrate
[2] = target: ePDZ-b-ENLYFQ-OFP fusion protein
[3] = target: HIS-ePDZ-b-ENLYFQ-OFP fusion substrate protein
[4] = target: T1, Spycatcher-WELQ-Tem1 fusion protein (Spycatcher followed by a SplB protease site with a P1' methionine and the lactamase Tem1), P62593
T1 chain: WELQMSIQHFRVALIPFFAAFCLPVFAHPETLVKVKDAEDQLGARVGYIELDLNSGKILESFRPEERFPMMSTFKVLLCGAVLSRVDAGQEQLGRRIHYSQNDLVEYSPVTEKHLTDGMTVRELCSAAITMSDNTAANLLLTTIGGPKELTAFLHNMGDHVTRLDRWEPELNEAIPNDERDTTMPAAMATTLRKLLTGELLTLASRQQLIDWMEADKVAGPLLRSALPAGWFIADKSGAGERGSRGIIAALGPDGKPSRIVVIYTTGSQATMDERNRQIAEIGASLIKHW

[5] = target: Spycatcher-WELQ-LSSmOrange fusion protein
[6] = target: HIS-ePDZ-b-WELQ-OFP fusion substrate protein

B1: SplB protease with ARVCF peptide truncated by 4 amino acids (DSWV) (protein)
chain: ENNVTKVKDTNIFPYTGVVAFKSATGFVVGKNTILTNKHVSKNYKVGDRITAHPNSDKGNGGIYSIKKIINYPGKEDVSVIQVEERAIERGPKGFNFNDNVTPFKYAAGAKAGERIKVIGYPHPYKNKYVLYESTGPVMSVEGSSIVYSAHTESGNSGSPVLNSNNELVGIHFASDVKNDDNRNAYGVYFTPEIKKFIAENIDKDSWV
Which results are given for B1?
cleavage activity at sub-stoichiometric protease (gel, FIG. 5, lanes 16, 18-19) [1]: At sub-stoichiometric amounts, 3 and 4 amino acid truncations of the ARVCF peptide showed clear improvements in activity compared to full-length peptide; cleavage efficiency at high protease concentration (gel, FIG. 5, lanes 2-5) [1]: At high protease concentration, no variation was observed in cleavage efficiency; cleavage to yield native OFP (gel, FIG. 5) [1]: These tagged proteases all showed improved cleavage to yield native OFP (red arrow) compared to SplB protease tagged with a non-specific C-terminal peptide (SplB-CON) and commercial nontagged SplB protease (SplB-COM)

B2: wild-type TEV protease, untagged (protein)
chain: GESLFKGPRDYNPISSTICHLTNESDGHTTSLYGIGFGPFIITNKHLFRRNNGTLLVQSLHGVFKVKNTTTLQQHLIDGRDMIIIRMPKDFPPFPQKLKFREPQREERICLVTTNFQTKSMSSMVSDTSCTFPSSDGIFWKHWIQTKDGQCGSPLVSTRDGFIVGIHSASNFTNTNNYFTSVPKNFMELLTNQEAQQWVSGWRLNADSVLWGGHKVFMSKPEEPFQPVKEATQLMNELVYSQ
What does the source list for B2?
cleavage of the fusion substrate to native OFP (gel, FIG. 6A) [2]: wild-type TEV protease did not show significant cleavage even after 24 hours incubation; generation of native OFP over time (gel, FIG. 6A) [2]: Native OFP (arrowed red) was rapidly generated through use of TEV-AP4 compared to endogenous TEV

B3: HIS-TEV (protein)
chain: GESLFKGPRDYNPISSTICHLTNESDGHTTSLYGIGFGPFIITNKHLFRRNNGTLLVQSLHGVFKVKNTTTLQQHLIDGRDMIIIRMPKDFPPFPQKLKFREPQREERICLVTTNFQTKSMSSMVSDTSCTFPSSDGIFWKHWIQTKDGQCGSPLVSTRDGFIVGIHSASNFTNTNNYFTSVPKNFMELLTNQEAQQWVSGWRLNADSVLWGGHKVFMSKPEEPFQPVKEATQLMNELVYSQ
With B3 as the protein, how does the “yield of native OFP after on-column cleavage (gel, FIG. 8, lanes 6 and 15)” value [3] read?
The value was “the yield of native OFP was significantly increased when histidine tagged TEV-AP4 was used compared to histidine tagged TEV”.

B4: SplB protease with shortened ARVC-pep tag (the least shortened of the 3 progressively shortened peptide tags) (protein)
chain: ENNVTKVKDTNIFPYTGVVAFKSATGFVVGKNTILTNKHVSKNYKVGDRITAHPNSDKGNGGIYSIKKIINYPGKEDVSVIQVEERAIERGPKGFNFNDNVTPFKYAAGAKAGERIKVIGYPHPYKNKYVLYESTGPVMSVEGSSIVYSAHTESGNSGSPVLNSNNELVGIHFASDVKNDDNRNAYGVYFTPEIKKFIAENIDK
Which results are given for B4?
cleavage efficiency at high protease concentration (gel, FIG. 5, lanes 2-5) [1]: At high protease concentration, no variation was observed in cleavage efficiency; cleavage to yield native OFP (gel, FIG. 5) [1]: These tagged proteases all showed improved cleavage to yield native OFP (red arrow) compared to SplB protease tagged with a non-specific C-terminal peptide (SplB-CON) and commercial nontagged SplB protease (SplB-COM)

B5: Commercial SplB protease, non-tagged (protein)
chain: ENNVTKVKDTNIFPYTGVVAFKSATGFVVGKNTILTNKHVSKNYKVGDRITAHPNSDKGNGGIYSIKKIINYPGKEDVSVIQVEERAIERGPKGFNFNDNVTPFKYAAGAKAGERIKVIGYPHPYKNKYVLYESTGPVMSVEGSSIVYSAHTESGNSGSPVLNSNNELVGIHFASDVKNDDNRNAYGVYFTPEIKKFIAENIDK
How did the “cleavage of the fusion substrate to native OFP (gel, FIG. 5)” value [1] turn out when B5 was run?
Its value is “Neither SplB-COM or Spl-CON was able to completely digest the fusion substrate”.

And the “cleavage of the fusion protein to native Tem1 (gel, FIG. 3)” value [4]?
Its value is “Commercial SplB protease, lacking the fused spytag, was only able to produce minimal native Tem1”.

And the “cleavage of the fusion protein to native LSSmOrange (gel, FIG. 4)” value [5]?
Its value is “A similar experiment with LSSmOrange replacing Tem1 yielded the same result”.

B6: SplB protease with full-length ARVCF peptide tag at C-terminus (protein)
chain: ENNVTKVKDTNIFPYTGVVAFKSATGFVVGKNTILTNKHVSKNYKVGDRITAHPNSDKGNGGIYSIKKIINYPGKEDVSVIQVEERAIERGPKGFNFNDNVTPFKYAAGAKAGERIKVIGYPHPYKNKYVLYESTGPVMSVEGSSIVYSAHTESGNSGSPVLNSNNELVGIHFASDVKNDDNRNAYGVYFTPEIKKFIAENIDKPQPVDSWV
Which “cleavage efficiency at high protease concentration (gel, FIG. 5, lanes 2-5)” value [1] does the source give for B6 here?
The value was “At high protease concentration, no variation was observed in cleavage efficiency”.

And the “cleavage of the fusion substrate to native OFP (gel, FIG. 5)” value [1]?
Its value is “this was notably more efficient for SplB-AP compared to SplB-COM and SplB fused to a control peptide that does not interact with ePDZ-b (SplB-CON)”.

And the “cleavage to yield native OFP (gel, FIG. 5)” value [1]?
The value was “These tagged proteases all showed improved cleavage to yield native OFP (red arrow) compared to SplB protease tagged with a non-specific C-terminal peptide (SplB-CON) and commercial nontagged SplB protease (SplB-COM)”.

B7: HIS-SplB-ARVC-pep (protein)
chain: ENNVTKVKDTNIFPYTGVVAFKSATGFVVGKNTILTNKHVSKNYKVGDRITAHPNSDKGNGGIYSIKKIINYPGKEDVSVIQVEERAIERGPKGFNFNDNVTPFKYAAGAKAGERIKVIGYPHPYKNKYVLYESTGPVMSVEGSSIVYSAHTESGNSGSPVLNSNNELVGIHFASDVKNDDNRNAYGVYFTPEIKKFIAENIDKPQPVDSWV
Which “on-column cleavage to native OFP (gel, FIG. 7)” value [6] does the source give for B7 here?
Its value is “Addition of 30 mM imidazole alleviated this constraint, resulting in improved cleavage efficiencies using histidine tagged ePDZ-b -WELQ-OFP and SplB-AP proteins”.

B8: TEV protease fused to the optimised 4-amino acid truncated ARVCF peptide (protein)
chain: GESLFKGPRDYNPISSTICHLTNESDGHTTSLYGIGFGPFIITNKHLFRRNNGTLLVQSLHGVFKVKNTTTLQQHLIDGRDMIIIRMPKDFPPFPQKLKFREPQREERICLVTTNFQTKSMSSMVSDTSCTFPSSDGIFWKHWIQTKDGQCGSPLVSTRDGFIVGIHSASNFTNTNNYFTSVPKNFMELLTNQEAQQWVSGWRLNADSVLWGGHKVFMSKPEEPFQPVKEATQLMNELVYSQDSWV
What does the source list for B8?
cleavage of the fusion substrate to native OFP (gel, FIG. 6A) [2]: The results show clearly improved cleavage when TEV is fused to the optimised 4-amino acid truncated ARVCF peptide (TEV-AP4); generation of native OFP over time (gel, FIG. 6A) [2]: Native OFP (arrowed red) was rapidly generated through use of TEV-AP4 compared to endogenous TEV; incubation time to near complete cleavage (gel, FIG. 6A) [2]: near completion around 2.5 hours; incubation time to notable cleavage (gel, FIG. 6A) [2]: Notable cleavage was observed after only 30 minutes incubation

B9: HIS-TEV-AP4 (protein)
chain: GESLFKGPRDYNPISSTICHLTNESDGHTTSLYGIGFGPFIITNKHLFRRNNGTLLVQSLHGVFKVKNTTTLQQHLIDGRDMIIIRMPKDFPPFPQKLKFREPQREERICLVTTNFQTKSMSSMVSDTSCTFPSSDGIFWKHWIQTKDGQCGSPLVSTRDGFIVGIHSASNFTNTNNYFTSVPKNFMELLTNQEAQQWVSGWRLNADSVLWGGHKVFMSKPEEPFQPVKEATQLMNELVYSQDSWV
For B9, which “yield of native OFP after on-column cleavage (gel, FIG. 8, lanes 6 and 15)” value [3] is on record?
The value was “the yield of native OFP was significantly increased when histidine tagged TEV-AP4 was used compared to histidine tagged TEV”.
